Legend:
F1 maize = test: Efficacy field trial of F1 maize; assay type: in vivo; details: F1 transgenic maize greenhouse and field data
Procedure: This F1 population was segregating (50% hemizygous and 50% null) and selection for transgenic plants was not conducted prior to injury ratings. The overall average injury ratings for such a population are expected to be higher than a homogenous transgenic population since it is difficult to discern non-transgenic plants from transgenic plants. The trials were conducted at two locations with two replicates and 3 treatments per construct. Non-transgenic maize plants were used as a negative control. The herbicide application treatments were as follows: Treatment 1 was 0.036 lb ai/acre S-3100 applied at V2 followed by (fb) V4 fb V8; Treatment 2: was 0.072 lb ai/acre S-3100 applied at V2 fb V4 fb V8; Treatment 3: was 0.144 lb ai/acre S-3100 applied at V2 fb V4 fb V8. Crop Injury Percent ratings were assessed at the V2 growth stage (CIPV2) and at the V4 growth stage (CIPV4) at 5 to 7 days after treatment (the error V2 and error V4 are half of the least significant difference (LSD)). The crop injury ratings were combined for both locations.

transgenic maize plants [1] = test: R0 transgenic maize 40 g/ha S-3100 spray test; assay type: in vivo
From the text: H_N60 (SEQ ID NO:3). […] These five constructs had the same promoter plus leader plus intron combination, with two different targeting peptide (TP) sequences, and the same 3′UTR sequence. Leaf samples were taken from the R0 plants and analyzed by PCR to determine the transgene copy number. Single copy plants for up to 12 unique events per construct were transplanted to pots, selfed and outcrossed to generate R1 and F1 seed, respectively, for future testing. Multi-copy plants and extra single copy plants were sprayed with 40 grams/ha 5-3100 at approximately the V5 growth stage and injury ratings were taken 7 days after treatment. The average percent (%) injury for all plants expressing each PPO enzyme and the number of plants that were deemed highly tolerant (less than 10% injury) was noted, where each plant is a unique single or multi-copy transformant.

soybean plantlets = test: High-throughput soybean screening for herbicide tolerance (plantlets); assay type: in vivo, soybean (A3555); design: key: 0 for poor tolerance, high damage, low green coloration; 1 for some tolerance, average damage, moderate green coloration; 2 for good tolerance, low damage, high green coloration; details: S-3100 spray five weeks post-transformation, scored day four
From the text: A high-throughput plant transformation and screening method was used to evaluate large numbers of constructs in transgenic plants for herbicide tolerance in early transformation plantlet tissue. This allowed for faster and higher volume screening of construct configurations and PPO enzymes.
This permitted the side-by-side comparison of seven different HemG PPO enzymes with thirty-seven different targeting peptides using the same promoter and 3′UTR elements for gene expression. These plant transformation constructs were used to transform soybean excised embryos (germplasm A3555) using A. tumefaciens and standard methods known in the art. Four hundred explants were inoculated for each construct resulting in twelve containers per construct. A sterile PPO herbicide solution was used for herbicide tolerance testing. The herbicide solution consisted of 0.3 g of S-3100 in crop oil concentrate (5.0 mL) and 495 mL of deionized water. This was filtered through a 0.45 micron Nalgene® Rapid-Flow™ Tissue Culture Filter Unit and Surfactant-Free Cellulose Acetate membrane filter unit (VWR, Radnor, PA, USA). The resulting sterile solution was shaken before application.
At five weeks post-transformation, four of the twelve plant containers per construct were sprayed with two passes of the sterile PPO herbicide solution. The treated plantlets were then enclosed in the container and received at least 15 hours of light exposure post spray each day for four days. At the end of day four post application of S-3100, the treated plantlets were photographed and scored on a visual scale of green coloration (green coloration was representative of healthy photosynthetic plant tissue as compared to photo-bleached tissue) versus damage. The scoring values were 0 for poor tolerance, high damage, low green coloration; 1 for some tolerance, average damage, moderate green coloration; and 2 for good tolerance, low damage, high green coloration. The scoring for each construct is presented in Table 9, where n.d. indicates the analysis was not conducted.

transgenic maize plants [2] = test: R0 multi-copy transgenic maize S-3100 spray test; assay type: in vivo, maize (LH244)
From the text: For maize in planta testing, immature maize (LH244) embryos were transformed with using Agrobacterium tumefaciens and standard methods known in the art. […] Leaf samples were collected from R0 plants and screened by PCR to determine the number of copies of the transgene inserted into the plant genome. […] Plants containing multiple copies (multi-copy) were sprayed as follows: […]

[3] = test system: hemG knockout E. coli strain; assay type: cell-based; details: LB medium plates (heme-free)
[4] = test system: hemG knockout E. coli strain; assay type: cell-based; details: LB liquid medium, acifluorfen (1 mM), flumioxazin (0.5 mM), lactofen (0.5 mM), fomesafen (1 mM), S-3100 (100 uM)
[5] = 40 grams/ha S-3100 at V5, 7 days after treatment, R0 plants

B1: H_N10: E. coli wild-type HemG protoporphyrinogen oxidase, SEQ ID NO:4 (SEQ ID NO:13 lacking start methionine) (protein, listed as Escherichia coli)
chain: MKTLILFSTRDGQTREIASYLASELKELGIQADVANVHRIEEPQWENYDRVVIGASIRYGHYHSAFQEFVKKHATRLNSMPSAFYSVNLVARKPEKRTPQTNSYARKFLMNSQWRPDRCAVIAGALRYPRYRWYDRFMIKLIMKMSGGETDTRKEVVYTDWEQVANFAREIAHLTDKPTLK
With B1 the “injury rates when expressed in transgenic plants (crop tolerance to a PPO herbicide)” value (F1 maize) was “reduced injury rates”, the “Average Injury” value (transgenic maize plants [1]; [5]) was 39.5% and the “Highly Tolerant (number of plants with less than 10% injury)” value (transgenic maize plants [1]; [5]) was 31. For the same molecule, the “injury rates when expressed in transgenic plants (crop tolerance to a PPO herbicide)” value (transgenic maize plants [1]; R0 transgenic maize data) was “reduced injury rates”, the coloration score (soybean plantlets; TP9) was 1 and the coloration score (soybean plantlets; TP12) was 1. It also gave a coloration score (soybean plantlets; TP13) of 1, a coloration score (soybean plantlets; TP14) of 0 and a coloration score (soybean plantlets; TP16) of 1. It also gave a coloration score (soybean plantlets; TP18) of 1, a coloration score (soybean plantlets; TP19) of 0 and a coloration score (soybean plantlets; TP20) of 0. For the same molecule, the coloration score (soybean plantlets; TP21) was 0, the coloration score (soybean plantlets; TP22) was 1 and the coloration score (soybean plantlets; TP23) was 1. It also gave a coloration score (soybean plantlets; TP24) of 0, a coloration score (soybean plantlets; TP26) of 0 and a coloration score (soybean plantlets; TP27) of 1. For the same molecule, the coloration score (soybean plantlets; TP31) was 1, the coloration score (soybean plantlets; TP33) was 1 and the coloration score (soybean plantlets; TP36) was 0. The “Average Injury” value (transgenic maize plants [2]; Treatment 1: 5 g/ha S-3100 at V5 followed by 10 g/ha at V7, total 15 g/ha, 7 days after final treatment, H_N10 in construct 6) was 28.9% and the “Average Injury” value (transgenic maize plants [2]; Treatment 2: 10 g/ha S-3100 at V5, 7 days after treatment, H_N10 in construct 16) was 24.2%.

B2: Waterhemp: herbicide-sensitive wild-type protoporphyrinogen oxidase from Amaranthus tuberculatus (waterhemp), SEQ ID NO:21; plastid extract in Table 3 (protein, listed as Amaranthus tuberculatus)
chain: MGNISEREEPTSAKRVAVVGAGVSGLAAAYKLKSHGLSVTLFEADSRAGGKLKTVKKDGFIWDEGANTMTESEAEVSSLIDDLGLREKQQLPISQNKRYIARDGLPVLLPSNPAALLTSNILSAKSKLQIMLEPFLWRKHNATELSDEHVQESVGEFFERHFGKEFVDYVIDPFVAGTCGGDPQSLSMHHTFPEVWNIEKRFGSVFAGLIQSTLLSKKEKGGENASIKKPRVRGSFSFQGGMQTLVDTMCKQLGEDELKLQCEVLSLSYNQKGIPSLGNWSVSSMSNNTSEDQSYDAVVVTAPIRNVKEMKIMKFGNPFSLDFIPEVTYVPLSVMITAFKKDKVKRPLEGFGVLIPSKEQHNGLKTLGTLFSSMMFPDRAPSDMCLFTTFVGGSRNRKLANASTDELKQIVSSDLQQLLGTEDEPSFVNHLFWSNAFPLYGHNYDSVLRAIDKMEKDLPGFFYAGNHKGGLSVGKAMASGCKAAELVISYLDSHIYVKMDEKTA
In the case of B2, the “restore growth of the transformed hemG knockout E. coli strain (PPO activity)” value [3] is reported as “able to restore growth” and the “growth of hemG knockout E. coli strain in the presence of a PPO herbicide” value [4] is reported as “sensitive”.
